B1: LRRC45 (parent)
chain: DLSAANEKNLLLQNQVDELERKFR
B2: MLL5 (parent)
chain: EQIAERKRKMVSWEASSLGLVTAA

Variants of: B1
Experiment: protein stability index of a GFP-peptide fusion (GPS, HEK-293T) (PSI 1-6); higher = more stable
Conditions: c terminus: a fixed tail appended
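Note: lentivirally expressed fusions sorted by FACS into six bins by GFP to DsRed ratio, PSI derived from sequencing read proportions per bin multiplied by bin number.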

Row | Variant | protein stability index
1 | DLCAANEKNLLLQNQVDELERKFR [S3C] | 3.74
2 | DLAAANEKNLLLQNQVDELERKFR [S3A] | 4.44
3 | DLDAANEKNLLLQNQVDELERKFR [S3D] | 4.64
4 | DWSAANEKNLLLQNQVDELERKFR [L2W] | 4.27
5 | DPSAANEKNLLLQNQVDELERKFR [L2P] | 4.67
6 | DGSAANEKNLLLQNQVDELERKFR [L2G] | 4.78
7 | DNSAANEKNLLLQNQVDELERKFR [L2N] | 4.64
8 | DTSAANEKNLLLQNQVDELERKFR [L2T] | 4.92
9 | DFSAANEKNLLLQNQVDELERKFR [L2F] | 4.54
10 | DASAANEKNLLLQNQVDELERKFR [L2A] | 5.21
11 | DYSAANEKNLLLQNQVDELERKFR [L2Y] | 4.85
12 | DQSAANEKNLLLQNQVDELERKFR [L2Q] | 4.69
13 | DKSAANEKNLLLQNQVDELERKFR [L2K] | 5.06
14 | DRSAANEKNLLLQNQVDELERKFR [L2R] | 4.86
15 | DCSAANEKNLLLQNQVDELERKFR [L2C] | 4.76
16 | DMSAANEKNLLLQNQVDELERKFR [L2M] | 4.19
17 | DHSAANEKNLLLQNQVDELERKFR [L2H] | 4.61
18 | DVSAANEKNLLLQNQVDELERKFR [L2V] | 3.89
19 | DSSAANEKNLLLQNQVDELERKFR [L2S] | 4.86
20 | DESAANEKNLLLQNQVDELERKFR [L2E] | 5.13
21 | DDSAANEKNLLLQNQVDELERKFR [L2D] | 5.31

Row | Variant | protein stability index
22 | DISAANEKNLLLQNQVDELERKFR [L2I] | 3.27
23 | QLSAANEKNLLLQNQVDELERKFR [D1Q] | 4.21
24 | RLSAANEKNLLLQNQVDELERKFR [D1R] | 4.41
25 | PLSAANEKNLLLQNQVDELERKFR [D1P] | 4.17
26 | VLSAANEKNLLLQNQVDELERKFR [D1V] | 4.34
27 | WLSAANEKNLLLQNQVDELERKFR [D1W] | 3.75
28 | ALSAANEKNLLLQNQVDELERKFR [D1A] | 4.6
29 | NLSAANEKNLLLQNQVDELERKFR [D1N] | 4.4
30 | KLSAANEKNLLLQNQVDELERKFR [D1K] | 4.19
31 | CLSAANEKNLLLQNQVDELERKFR [D1C] | 3.73
32 | SLSAANEKNLLLQNQVDELERKFR [D1S] | 4.25
33 | ELSAANEKNLLLQNQVDELERKFR [D1E] | 3.61
34 | ILSAANEKNLLLQNQVDELERKFR [D1I] | 3.93
35 | HLSAANEKNLLLQNQVDELERKFR [D1H] | 4.42
36 | YLSAANEKNLLLQNQVDELERKFR [D1Y] | 4.19
37 | LLSAANEKNLLLQNQVDELERKFR [D1L] | 3.93
38 | GLSAANEKNLLLQNQVDELERKFR [D1G] | 4.55
39 | FLSAANEKNLLLQNQVDELERKFR [D1F] | 4.09
40 | TLSAANEKNLLLQNQVDELERKFR [D1T] | 3.83
41 | MLSAANEKNLLLQNQVDELERKFR [D1M] | 4.23

Variants of: B2
Experiment: as above
Conditions: c terminus: a fixed tail appended

Row | Variant | protein stability index
42 | EQIAERKRKMVSWEASSLTLVTAA [G19T] | 3.25
43 | EQIAERKRKMVSWEASSLYLVTAA [G19Y] | 1.84
44 | EQIAERKRKMVSWEASSLQLVTAA [G19Q] | 3.49
45 | EQIAERKRKMVSWEASSLALVTAA [G19A] | 2.1
46 | EQIAERKRKMVSWEASSLNLVTAA [G19N] | 2.95
47 | EQIAERKRKMVSWEASSLKLVTAA [G19K] | 3.09
48 | EQIAERKRKMVSWEASSLDLVTAA [G19D] | 3.32
49 | EQIAERKRKMVSWEASSLMLVTAA [G19M] | 2.65
50 | EQIAERKRKMVSWEASSLELVTAA [G19E] | 3.71
51 | EQIAERKRKMVSWEASSLHLVTAA [G19H] | 2.68
52 | EQIAERKRKMVSWEASSLRLVTAA [G19R] | 3.16
53 | EQIAERKRKMVSWEASSLCLVTAA [G19C] | 2.38
54 | EQIAERKRKMVSWEASSLWLVTAA [G19W] | 1.74
55 | EQIAERKRKMVSWEASSLVLVTAA [G19V] | 2.9
56 | EQIAERKRKMVSWEASSLSLVTAA [G19S] | 3.84
57 | EQIAERKRKMVSWEMSSLGLVTAA [A15M] | 2.64
58 | EQIAERKRKMVSWESSSLGLVTAA [A15S] | 2.94
59 | EQIAERKRKMVSWEVSSLGLVTAA [A15V] | 2.56
60 | EQIAERKRKMVSWEQSSLGLVTAA [A15Q] | 2.93
61 | EQIAERKRKMVSWEPSSLGLVTAA [A15P] | 3.77
62 | EQIAERKRKMVSWEYSSLGLVTAA [A15Y] | 2.26
63 | EQIAERKRKMVSWENSSLGLVTAA [A15N] | 2.67
64 | EQIAERKRKMVSWERSSLGLVTAA [A15R] | 3.98
65 | EQIAERKRKMVSWELSSLGLVTAA [A15L] | 2.32
66 | EQIAERKRKMVSWEWSSLGLVTAA [A15W] | 1.84
67 | EQIAERKRKMVSWEASSQGLVTAA [L18Q] | 3.72
68 | EQIAERKRKMVSWEASSEGLVTAA [L18E] | 4.66

Row | Variant | protein stability index
69 | EQIAERKRKMVSWEASSPGLVTAA [L18P] | 3.4
70 | EQIAERKRKMVSWEASSAGLVTAA [L18A] | 3.31
71 | EQIAERKRKMVSWEASSMGLVTAA [L18M] | 3.16
72 | EQIAERKRKMVSWEASSHGLVTAA [L18H] | 2.97
73 | EQIAERKRKMVSWEASSNGLVTAA [L18N] | 3.52
74 | EQIAERKRKMVSWEASSSGLVTAA [L18S] | 1.92
75 | EQIAERKRKMVSWEASSDGLVTAA [L18D] | 4.24
76 | EQIAERKRKMVSWEASSCGLVTAA [L18C] | 2.97
77 | EQIAERKRKMVSWEASSYGLVTAA [L18Y] | 2.77
78 | EQIAERKRKMVSWEASSRGLVTAA [L18R] | 3.01
79 | EQIAERKRKMVSWEASSVGLVTAA [L18V] | 2.53
80 | EQIAERKRKMVSWEASSGGLVTAA [L18G] | 3.48
81 | EQIAERKRKMVSWEASSFGLVTAA [L18F] | 2.43
82 | EQIAERKRKMVSWEASSTGLVTAA [L18T] | 3.5
83 | EQIAERKRKMVSWEASSKGLVTAA [L18K] | 3.86
84 | EQIAERKRKMVSWEASSIGLVTAA [L18I] | 1.91
85 | EQIAERKRKMVSWEASSLGLITAA [V21I] | 3.15
86 | EQIAERKRKMVSWEASSLGLGTAA [V21G] | 3.4
87 | EQIAERKRKMVSWEASSLGLHTAA [V21H] | 2.82
88 | EQIAERKRKMVSWEASSLGLRTAA [V21R] | 2.96
89 | EQIAERKRKMVSWEASSLGLPTAA [V21P] | 2.44
90 | EQIAERKRKMVSWEASSLGLFTAA [V21F] | 2.38
91 | EQIAERKRKMVSWEASSLGLTTAA [V21T] | 3.62
92 | EQIAERKRKMVSWEASSLGLETAA [V21E] | 2.73
93 | EQIAERKRKMVSWEASSLGLATAA [V21A] | 3.23
94 | EQIAERKRKMVSWEASSLGLQTAA [V21Q] | 3.22
